From PMC8429728, “TNK1 is a ubiquitin-binding and 14-3-3-regulated kinase that can be targeted to block tumor growth” (Nature Communications, 2021) come the findings set out here.

The target in assay [1] is FLAG-TNK1 ΔUBA (1–580) (human) (UniProt Q13470). Description: co-IP; FLAG-TNK1 (WT or mutants) precipitated on anti-DYKDDDDK resin from HEK-293T lysate (10 mM HEPES KOH pH 7.5, 150 mM KCl, 0.01% IGEPAL), 1 h 4 °C, washed with PBS; immunoblotted for 14-3-3 or ubiquitin; in Fig. 2c cells treated with 1 uM kinase inhibitors for 4 h. Background: A western blot detects proteins with antibodies after separation by electrophoresis.

Assay [2] has as its target Biotin-(4xPEG)-RNKGISRp… (human). Description: BLI; biotin-tagged peptide loaded on streptavidin biosensors; 14-3-3ζ 50–1000 nM, 4 s association, 120 s dissociation; 0.001% TBST; 30 °C; Kd = Koff/Kon, mean of 3 runs. On the technique in general: Biolayer interferometry detects binding as a change in optical thickness at a sensor tip.
Assay [3] concerns the target 14-3-3ζ (UniProt P63104). Description: in vitro europium/Cy5 FRET binding assay.

14-3-3 (endogenous, isoform not told), sequence (P63104 whole entry, canonical isoform): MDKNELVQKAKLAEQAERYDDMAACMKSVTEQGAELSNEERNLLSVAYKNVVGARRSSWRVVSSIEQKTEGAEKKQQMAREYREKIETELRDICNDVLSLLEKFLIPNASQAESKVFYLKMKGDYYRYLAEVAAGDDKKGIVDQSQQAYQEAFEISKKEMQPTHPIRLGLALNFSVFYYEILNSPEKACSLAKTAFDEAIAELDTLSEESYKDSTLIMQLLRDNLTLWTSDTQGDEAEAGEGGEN
FLAG-TNK1 ΔUBA (1–580) (human), sequence (Q13470 1-580, stated change not applied): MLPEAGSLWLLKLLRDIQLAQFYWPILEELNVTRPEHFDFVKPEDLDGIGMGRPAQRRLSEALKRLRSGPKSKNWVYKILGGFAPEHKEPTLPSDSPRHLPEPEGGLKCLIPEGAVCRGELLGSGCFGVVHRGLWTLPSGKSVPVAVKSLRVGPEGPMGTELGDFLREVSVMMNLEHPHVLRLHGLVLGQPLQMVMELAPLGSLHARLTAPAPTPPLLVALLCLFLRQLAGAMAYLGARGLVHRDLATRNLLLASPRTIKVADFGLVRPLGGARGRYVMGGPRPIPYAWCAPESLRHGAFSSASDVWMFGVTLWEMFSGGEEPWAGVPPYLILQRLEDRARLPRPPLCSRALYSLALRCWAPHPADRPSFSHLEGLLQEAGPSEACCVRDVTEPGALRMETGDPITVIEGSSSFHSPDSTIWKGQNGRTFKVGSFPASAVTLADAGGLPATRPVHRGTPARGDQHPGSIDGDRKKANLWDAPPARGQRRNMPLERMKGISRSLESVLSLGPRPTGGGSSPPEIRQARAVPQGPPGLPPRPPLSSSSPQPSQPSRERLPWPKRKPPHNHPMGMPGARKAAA

In the case of “14-3-3 (endogenous, isoform not told) (from UniProt P63104 1-245) (natural protein)”, in assay [1], the fold increase in interaction with 14-3-3 compared to WT TNK1 worked out at 4 fold. Take “14-3-3ζ (purified, from the GST-14-3-3ζ plasmid) (from UniProt P63104 1-245) (natural protein)”: the Kd in assay [2] was determined as 3.39 µM. For the substance “TNK1 (from UniProt Q13470) pS500/pS502/pS505 peptide”, in assay [3] (reference: pS502 mono-phosphorylated peptide, sites S500,S505), the “binding against the reference” value is on record as “lost”. With “TNK1 (from UniProt Q13470) pS502 peptide”, in assay [3] (reference: non-phosphorylated peptide, sites S502), the “binding against the reference” value is recorded as “gained”.

Broadly, the Kd is the free concentration of one partner at which half of the binding sites on the other are occupied at equilibrium, for simple one-to-one binding.
